5 molecules from publication PMC3046128, “Systematic Two-Hybrid and Comparative Proteomic Analyses Reveal Novel Yeast Pre-mRNA Splicing Factors Connected to Prp19” (PLoS ONE, 2011) can be followed below.

The target in test [1] is T1, full length S. cerevisiae Prp19 (S. cerevisiae, UniProt P32523 1-503).
T1 construct: Prp19, S. cerevisiae, full length (mass 58.6 kDa); no tag is printed for Prp19 in this experiment; also called ScPrp19; source: E. coli BL21 (pETDuet-1), co-expressed with His6-ScUrn1, purified (Ni-NTA agarose, heparin agarose, gel filtration)
T1 sequence (looked up): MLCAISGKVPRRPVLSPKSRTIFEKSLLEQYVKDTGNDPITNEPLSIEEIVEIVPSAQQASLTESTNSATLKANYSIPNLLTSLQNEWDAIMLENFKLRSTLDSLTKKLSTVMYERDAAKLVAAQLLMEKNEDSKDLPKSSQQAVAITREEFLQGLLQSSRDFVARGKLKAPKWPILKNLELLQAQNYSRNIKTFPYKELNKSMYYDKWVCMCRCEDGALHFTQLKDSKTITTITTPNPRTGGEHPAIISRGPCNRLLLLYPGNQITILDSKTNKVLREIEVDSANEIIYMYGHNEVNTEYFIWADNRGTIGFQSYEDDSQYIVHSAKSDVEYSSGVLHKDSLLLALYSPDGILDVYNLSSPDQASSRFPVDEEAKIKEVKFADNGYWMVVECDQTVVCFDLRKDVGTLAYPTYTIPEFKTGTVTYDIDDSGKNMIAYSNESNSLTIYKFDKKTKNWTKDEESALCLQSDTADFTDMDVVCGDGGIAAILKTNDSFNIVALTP
Description: AUC; sedimentation velocity, 30,000 rpm, 22°C, 280 nm; Sedfit c(s) analysis; ScPrp19 constant with His6-ScUrn1 at 1∶1 or 1∶2.5 molar ratio. The settings on record: both partners purified.

In test [2] the target is T2, His6-ScPrp19(144–503) (S. cerevisiae, UniProt P32523 144-503).
T2 construct: Prp19, S. cerevisiae, amino acids 144–503; also called His6-Prp19(144–503); ScPrp19 WD40 domain; source: E. coli BL21 (pET15b), purified (Ni-NTA agarose)
T2 sequence (looked up): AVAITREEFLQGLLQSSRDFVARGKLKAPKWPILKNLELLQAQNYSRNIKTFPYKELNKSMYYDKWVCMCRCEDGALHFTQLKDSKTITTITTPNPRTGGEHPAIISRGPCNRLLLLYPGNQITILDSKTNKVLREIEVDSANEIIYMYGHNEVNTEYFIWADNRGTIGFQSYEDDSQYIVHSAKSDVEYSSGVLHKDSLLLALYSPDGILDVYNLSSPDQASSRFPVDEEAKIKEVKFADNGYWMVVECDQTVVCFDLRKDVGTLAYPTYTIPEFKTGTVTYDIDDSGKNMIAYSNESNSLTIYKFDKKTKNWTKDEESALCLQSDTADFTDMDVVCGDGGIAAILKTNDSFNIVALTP
The experiment in a line: pull-down; purified soluble MBP fusions incubated one hour at 4°C with Ni-NTA beads coated with His6-ScPrp19(144–503); washed; SDS-PAGE and Coomassie staining. As to conditions: both partners purified.

Test [3] has as its target T3, S. pombe Prp19-Myc13 (S. pombe, UniProt O14011 1-488).
T3 construct: Prp19 (Cwf8), S. pombe, open reading frame tagged at the 3' end of the endogenous locus; also called SpPrp19; Cwf8; source: S. pombe, tagged at the endogenous locus, in lysate; not shown: Myc13, C-terminal, kept
T3 sequence (looked up): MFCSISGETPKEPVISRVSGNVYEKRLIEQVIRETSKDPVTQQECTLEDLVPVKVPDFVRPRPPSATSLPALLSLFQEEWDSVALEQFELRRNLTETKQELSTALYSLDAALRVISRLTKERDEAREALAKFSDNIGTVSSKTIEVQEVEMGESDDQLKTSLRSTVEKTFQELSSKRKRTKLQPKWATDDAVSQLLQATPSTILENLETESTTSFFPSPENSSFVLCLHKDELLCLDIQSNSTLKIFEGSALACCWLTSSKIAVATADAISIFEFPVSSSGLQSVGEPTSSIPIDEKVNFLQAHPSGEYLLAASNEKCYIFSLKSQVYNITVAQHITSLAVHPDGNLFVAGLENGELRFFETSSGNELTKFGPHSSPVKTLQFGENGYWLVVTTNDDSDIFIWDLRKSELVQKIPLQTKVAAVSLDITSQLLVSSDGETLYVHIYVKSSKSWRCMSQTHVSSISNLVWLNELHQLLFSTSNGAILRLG
The experiment in a line: co-IP; anti-HA immunoprecipitate from S. pombe cwf7-HA3 prp19-Myc13 prp17-Myc13 cells; anti-Myc immunoblot quantified on an Odyssey instrument. The settings on record: partners not purified.

Test [4] concerns the target T4, full length S. cerevisiae Prp19 (S. cerevisiae), P32523.
T4 chain: T1 sequence (looked up)
The experiment in a line: AUC; sedimentation velocity, 30,000 rpm, 22°C, 280 nm; Sedfit c(s) analysis; ScPrp19 constant with His6-ScUrn1 at 1∶1 or 1∶2.5 molar ratio. As to conditions: remark: other sources report otherwise.

B1: His6-ScUrn1 (natural protein, S. cerevisiae, UniProt Q06525 1-465, looked up)
chain: MRGEWQEFKTPAGKKYYYNKNTKQSRWEKPNLKKGSNLESNAKESQTERKPTFSLELVNGWHLIIYNDGTKLYFNDDSKEFKNDISQEDDSRCRSLIESLDKEKLVLLIGVARGYTMREEDIDKILESCNEEIHLFKRNQDEVERKDEISEEAGDVKSPLQESHTGLVSGYGSSSGEEDEEEDEEEDEENEEQIVNQDISIIDDLNRIDTDDIDERNIFFELFDRYKLDKFSTWSLQSKKIENDPDFYKIRDDTVRESLFEEWCGERSGNATAEESDSEDNSEDDSEVLEPTKYHYLAQIVANAGTIAPDTIPQDIRKQQKALYKAYKIKEYIPSKRDQDKFVSQLLFYYKTFDLEQRKEIFCDCLRDHERDFTGAVESLRQDKELIDRWQTLLKAPADSSSIEDILLSIEHRCCVSPIVVTEPRYYVVGILEKTVVWVRWLAAEVGPSSRFTPVGAGNEPINPE
notes: Urn1, S. cerevisiae (His6-ScUrn1 mass 55.1 kDa); the printed mass fits the whole protein; also called His6-Urn1; source: E. coli BL21 (pETDuet-1), co-expressed with ScPrp19, purified (Ni-NTA agarose, heparin agarose, gel filtration)
In the case of B1, the “stoichiometry N” value in test [1] was determined as 1 Urn1 per Prp19 tetramer.

B2: MBP-ScPrp17(1–140) (domain or fragment, S. cerevisiae, UniProt P40968 1-140, looked up)
chain: MGLVDGYDTSSDSDLNFDEGKSVHEKKNGNLHEDTSYEPSSNNIHKRKSHFTKSELKRRRKTRKGDGPWGSWSSSDDETSQASETQKEDQDIFVHALAEDNLDSEQIEVEEVSHFYGKSEKDYQGRGYLYPPNDVDVDLR
notes: Prp17/Cdc40, S. cerevisiae, residues 1–140; source: E. coli BL21 (pMAL-c2X), purified (amylose beads)
As to B2, the binding result in test [2] is on record as “binds”.

B3: S. pombe Prp17-Myc13 (natural protein, UniProt O43071 1-558, looked up)
chain: MLVANYSSDSEEQENSQSPNIQPLLHTENLAPAVVDNVKDDLIVSKGGNSRELARNVPVNEMVQPALGPANPFVTKEQDSIKNSITGYAEREYVPNFVFNQEYYANTHAIYGKRNFDDNEATTSTDLKRKSQKIKERREDPGDPSILEGDGAYKGPWAGYGSEQSSSPLEYSEYEEVESLDVKSEKDTESNNLGQNELLKEQLATPEVETHRSKEETILHKDRLFDYQNRSYMHVPNDVGINLSEEPGEQTCYIPKKHIFTWKGHTKGISCLRFFPISGHLLLSGSMDNQIKIWEVYHDRSLLRTFQGHARPIRDLSFSQDGRSFLSTSFDKTIKLWDTELGKCLNCFNSDRLTNCVKFQVDPDKPNEFLAGTADKRILQFDIRSPDIVQAYDHHLGGINSITFLENGKRFVTTSDDSSMRFWEYGTPVPIKFVADIAMHSMPRVALRPNGKSIACQSLDNCIYVYSAYEKYRQNKKKVFKGYSCSGYSLEVGFSPDGRFVFSGDSSGNACFWDWKTCKLMAKLPAHSGPVQSMAFHPQETSKVATSSIVDGSIKYWD
notes: Prp17, S. pombe, open reading frame tagged at the 3' end of the endogenous locus; also called SpPrp17; source: S. pombe, tagged at the endogenous locus, in lysate; not shown: Myc13, C-terminal, kept
For B3, the “stoichiometry N” value in test [3] is 1.05 ratio of Myc-tagged proteins.

B4: full length S. cerevisiae Prp19, P32523 1-503 (natural protein)
chain: T1 sequence (looked up)
B4: the stoichiometry N in test [4] is 4.

B5: MBP-ScUrn1(165–274) (domain or fragment, S. cerevisiae, UniProt Q06525 165-274, looked up)
chain: TGLVSGYGSSSGEEDEEEDEEEDEENEEQIVNQDISIIDDLNRIDTDDIDERNIFFELFDRYKLDKFSTWSLQSKKIENDPDFYKIRDDTVRESLFEEWCGERSGNATAE
notes: source: E. coli BL21 (pMAL-c2X), purified (amylose beads)
Regarding B5, in test [2], the binding result is “binds”.
